In PMC8280646:
Like-named read-outs stand apart in the source and are kept apart here.

Biological target: His-tagged hACE2 protein (human) (UniProt Q9BYF1)
Assay: SPR

His-tagged hACE2 protein (human), sequence (Q9BYF1 18-740): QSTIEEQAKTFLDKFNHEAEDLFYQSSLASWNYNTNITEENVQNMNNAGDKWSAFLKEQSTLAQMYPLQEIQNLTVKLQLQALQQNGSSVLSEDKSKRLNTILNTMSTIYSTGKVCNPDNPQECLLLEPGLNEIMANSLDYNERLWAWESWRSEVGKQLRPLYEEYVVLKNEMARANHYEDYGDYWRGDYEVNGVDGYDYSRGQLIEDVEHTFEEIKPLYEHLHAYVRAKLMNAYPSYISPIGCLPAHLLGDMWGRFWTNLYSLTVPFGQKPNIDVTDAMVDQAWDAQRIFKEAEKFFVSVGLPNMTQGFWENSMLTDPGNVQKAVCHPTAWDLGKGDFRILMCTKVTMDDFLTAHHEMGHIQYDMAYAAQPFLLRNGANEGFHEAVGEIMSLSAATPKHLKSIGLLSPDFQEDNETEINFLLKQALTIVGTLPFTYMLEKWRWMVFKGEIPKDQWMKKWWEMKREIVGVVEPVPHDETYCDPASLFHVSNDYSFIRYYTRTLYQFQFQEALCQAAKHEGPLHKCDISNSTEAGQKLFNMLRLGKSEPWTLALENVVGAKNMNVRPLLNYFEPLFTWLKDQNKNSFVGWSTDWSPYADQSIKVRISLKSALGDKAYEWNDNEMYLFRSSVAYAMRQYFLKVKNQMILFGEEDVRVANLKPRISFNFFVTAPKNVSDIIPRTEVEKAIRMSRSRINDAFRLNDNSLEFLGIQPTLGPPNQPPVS

| Substance | Kd [nM] | Kd (Fc fusion) [nM] |
| --- | --- | --- |
| Human IFNα-RBD-Fc | 12.3 | – |
| RBD | 7.98 | – |
| RBD-Fc | 11.5 | – |
| mouse IFNα-Pan-RBD-Fc fusion protein (I-P-R-F) (from UniProt P0DTC2 319-541) | – | 11 |
